This note sets out measurements from patent publication US20220305081A1.

This assay has as its target human SIRPγ (signal regulatory protein gamma), expressed on cells (human) (UniProt Q9P1W8). Description: cell-based or functional assay.
UniProt Q9P1W8, sequence (Q9P1W8 29-387): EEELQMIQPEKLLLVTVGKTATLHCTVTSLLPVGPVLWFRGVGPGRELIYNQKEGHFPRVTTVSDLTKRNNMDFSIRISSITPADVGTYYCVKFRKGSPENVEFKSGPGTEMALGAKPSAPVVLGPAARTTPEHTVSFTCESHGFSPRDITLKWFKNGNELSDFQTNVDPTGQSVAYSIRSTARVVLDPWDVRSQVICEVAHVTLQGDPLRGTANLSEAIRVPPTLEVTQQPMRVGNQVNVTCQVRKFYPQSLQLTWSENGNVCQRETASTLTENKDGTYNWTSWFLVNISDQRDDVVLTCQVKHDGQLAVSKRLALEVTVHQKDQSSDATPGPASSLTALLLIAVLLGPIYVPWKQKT

In the case of “anti-SIRPγ monoclonal antibody clone OX117”, the level of IFNγ secreted by T cells, relative to OX119-treated cells is more than 6 fold and the level of IFNγ secreted by T cells, relative to cells treated with LSB2.20 came out at 2 fold.
